The text below walks through data of patent publication US20230071321A1 (VIB VZW, published 2023).

In assay [1] the target is T1, hCXCR4Rho1D4 (full-length human CXCR4 receptor with C-terminal Rho1D4 tag) (human, UniProt P61072 6-352 (Pan troglodytes entry)). Briefly: cell-based or functional assay.
Assay [2] addresses T1, hCXCR4Rho1D4 (full-length human CXCR4 …). In words: control Nanobody co-expressed with hCXCR4Rho1D4 in P. pastoris; receptor level read by anti-Rho1D4 immunoblot. The source says: Equal amounts of total membrane protein (determined by a BCA assay) of induced P. pastoris GS115 clones, expressing only the human CXCR4 receptor, or in combination with a anti-hCXCR4 Nanobody (NbCA4142), or in combination with the negative control Nanobody (NbCA4910), were run on a 12% SDS-PAGE gel and blotted on a nitrocellulose membrane. The blot was developed with a primary mouse anti-Rho1D4 monoclonal antibody and a secondary Dylight (800 nm) goat anti-mouse IgG on an LI-COR odyssey system. For the hCXCR4-specific Nb co-expressing clone we detect more of the anti-Rho1D4 immunoreactive membrane protein band compared to the GS115hCXCR4 clone without Nb co-expression. […] Exact quantification has been calculated by the Odyssey software by measuring relative fluorescent signals (Table 4). It can, thus, be concluded that the increase in receptor expression can be attributed to the Nanobody-specific interaction with the receptor.
Protein samples were analyzed by SDS-poly-acrylamide gel electrophoresis, according to the Laemmli (Laemmli et al., 1970, Nature, 227:680) or the Tricine method (Schagger et al., 2006, Nat. Protoc. 1:16-22). Before loading on gel, the samples were mixed with 5×Laemmli (60 mM Tris-HCl pH 6,8; 2% SDS, 10% glycerol, 5% β-ME; 0.01% bromophenol blue) and heated for 10 minutes at 95° C. (only the ECM samples, not the membrane protein preparations). […]
For orientation: Immunoblotting shows a protein as a band on a membrane.

For assay [3] the target is unchanged. Briefly: cell-based or functional assay. The source holds these as a separate data set.

Like-named read-outs stand apart in the source and are kept apart here.

T1 sequence (P61072 other isoform, or with tags, fused parts or gaps limits assumed): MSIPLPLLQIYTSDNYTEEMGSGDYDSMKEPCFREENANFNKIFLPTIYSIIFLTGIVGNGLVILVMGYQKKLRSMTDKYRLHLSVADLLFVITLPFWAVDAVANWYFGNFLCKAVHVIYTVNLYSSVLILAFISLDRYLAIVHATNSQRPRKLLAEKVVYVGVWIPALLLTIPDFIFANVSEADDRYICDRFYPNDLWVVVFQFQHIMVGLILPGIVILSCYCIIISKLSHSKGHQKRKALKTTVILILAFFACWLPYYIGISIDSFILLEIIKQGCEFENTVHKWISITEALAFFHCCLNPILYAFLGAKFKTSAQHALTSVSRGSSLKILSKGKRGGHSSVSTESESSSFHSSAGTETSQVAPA

B1: Nanobody CA4910 (VHH)
VHH: QVQLVESGGGLVQPGGSLRLSCAASGSFRSIVSMAWYRQAPGKQRELVASSNSGGSTNYADSVKGRFTISRDNAKNTVYLQMNSLKPEDTAVYWCNVQNRLPGFDAFSGRSIAETYWGQGTQVTVSS
notes: It was co-expressed in P. pastoris as a control; also called NbCA4910; Nb4910
Turning to B1, in assay [1], the “Factor improvement (relative hCXCR4 expression, anti-Rho1D4 immunoblot fluorescence), clone 1” value turned out to be 0.4 fold; the “Factor improvement (relative hCXCR4 expression, anti-Rho1D4 immunoblot fluorescence), clone 2” value is 1.1 fold; the “Factor improvement (relative hCXCR4 expression, anti-Rho1D4 immunoblot fluorescence), clone 3” value was 1.2 fold. Besides, the binding result in assay [2] is on record as “no binding”.

B2: Nanobody CA4142 (VHH)
VHH: QVQLQESGGGLVRTGGSLRLSCAGSGSFFSINPMGWYRQAPGQQRELVATITGSGSTNYADSVKGRFTISRDNAKNTLYLQMNSLKPEDTAVYYCNAGYFDRIGRRYDRWGQGTQVTVSS
As for B2, the “Factor improvement (relative hCXCR4 expression, anti-Rho1D4 immunoblot fluorescence)” value amounted to 2.6 fold in assay [3] and 1.9 fold in assay [1].

B3: Nanobody CA4143 (VHH)
VHH: QVQLQESGGGLVQPGGSLRLSCAASGFTFSSYAMSWVRQAPGKGLEWVSTINSGGRSANYADSVKGRLTISRDNAKNTLHLQMNSLKPEDTALYYCARPRSVSRNYVPLGYDYLGQGTQVTVSS
With B3, the “Factor improvement (relative hCXCR4 expression, anti-Rho1D4 immunoblot fluorescence)” value in assay [3] is 3 fold.

B4: Nanobody CA4500 (VHH)
VHH: QVQLQESGGGLVQAGGSLRLSCAASGSTSGIIAMGWYRQAPGKQRELVARISSGSSTNYADSVKGRFTVSRDNAKNTVYLQMNSLKPEDTAVYYCNAVRRGYRNDYNSWGQGTQVTVSS
On to B4, for which, in assay [3], the “Factor improvement (relative hCXCR4 expression, anti-Rho1D4 immunoblot fluorescence)” value was 1.3 fold.

B5: Nanobody CA4140 (VHH)
VHH: QVQLQESGGGLVQPGGSLRLSCAASGSIFSINAMGWYRQAPGKQRELVAAITSGGSTNYADSVKGRFTISRDNAENTVYLQMNNLKPEDTAVYSCNAEGTSGSSRYRRRYEYWGKGTQVTVSS
For B5, the “Factor improvement (relative hCXCR4 expression, anti-Rho1D4 immunoblot fluorescence)” value in assay [3] came to 2.8 fold.
